Laboratory results: PMC9020777

Experiments:
Experiment in all cases: FRET or BRET
Settings in all cases: remark: other sources report otherwise
[1] = target: mCerulean3-BCL-2 (human), P10415
[2] = target: mCerulean3-BCL-XL (human), Q07817
[3] = target: mCerulean3-MCL-1 (human), Q07820
[4] = target: mCerulean3-BCL-2 (^CBCL-2) (human), P10415
Chain of mCerulean3-BCL-2 (^CBCL-2) (human), P10415 (P10415 whole entry): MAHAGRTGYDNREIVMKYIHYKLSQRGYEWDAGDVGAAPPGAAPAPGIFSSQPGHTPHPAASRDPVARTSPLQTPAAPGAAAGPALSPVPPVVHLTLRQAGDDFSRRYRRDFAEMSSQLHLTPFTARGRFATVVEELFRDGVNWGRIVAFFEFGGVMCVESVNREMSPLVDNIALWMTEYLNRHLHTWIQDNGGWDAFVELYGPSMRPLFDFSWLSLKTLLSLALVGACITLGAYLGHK

Chain of mCerulean3-BCL-2 (human), P10415 (P10415 whole entry): as above
Chain of mCerulean3-MCL-1 (human), Q07820 (Q07820 whole entry): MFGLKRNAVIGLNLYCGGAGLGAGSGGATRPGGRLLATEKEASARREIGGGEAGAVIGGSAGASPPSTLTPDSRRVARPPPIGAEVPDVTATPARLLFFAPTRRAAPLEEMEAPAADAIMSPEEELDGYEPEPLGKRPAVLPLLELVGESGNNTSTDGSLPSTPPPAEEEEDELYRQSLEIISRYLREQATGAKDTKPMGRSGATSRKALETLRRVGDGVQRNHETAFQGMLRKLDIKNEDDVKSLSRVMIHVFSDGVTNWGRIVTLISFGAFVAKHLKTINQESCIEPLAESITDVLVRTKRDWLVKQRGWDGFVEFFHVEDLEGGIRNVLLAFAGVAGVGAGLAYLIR
Chain of mCerulean3-BCL-XL (human), Q07817 (Q07817 whole entry): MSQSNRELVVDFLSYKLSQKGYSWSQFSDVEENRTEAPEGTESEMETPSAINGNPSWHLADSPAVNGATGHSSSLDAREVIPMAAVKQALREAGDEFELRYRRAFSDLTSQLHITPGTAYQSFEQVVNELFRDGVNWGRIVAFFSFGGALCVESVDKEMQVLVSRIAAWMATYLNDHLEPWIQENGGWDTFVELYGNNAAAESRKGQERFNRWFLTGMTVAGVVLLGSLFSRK

B1: Venus-BAD, Q92934 1-168 (natural protein)
chain: MFQIPEFEPSEQEDSSSAERGLGPSPAGDGPSGSGKHHRQAPGLLWDASHQQEQPTSSSHHGGAGAVEIRSRHSSYPAGTEDDEGMGEEPSPFRGRSRSAPPNLWAAQRYGRELRRMSDEFVDSFKKGLPRPKSAGTATQMRQSSSWTRVFQSWWDRNLGRGSSAPSQ
For B1, the Kd [1] was 4 µM and the Kd [2] was 7 µM.

B2: Venus-BIK, Q13323 1-160 (natural protein)
chain: MSEVRPLSRDILMETLLYEQLLEPPTMEVLGMTDSEEDLDPMEDFDSLECMEGSDALALRLACIGDEMDVSLRAPRLAQLSEVAMHSLGLAFIYDQTEDIRDVLRSFMDGFTTLKENIMRFWRSPNPGSWVSCEQVLLALLLLLALLLPLLSGGLHLLLK
Binder B2 has a Kd [1] of 3 µM and a Kd [3] of 6 µM.

B3: Venus-NOXA (^VNOXA), Q13794 1-54 (natural protein)
chain: MPGKKARKNAQPSPARAPAELEVECATQLRRFGDKLNFRQKLLNLISKLFCSGT
B3 gave a Kd [4] of 8 µM.
